“Also recorded” adds a separate entry of the source. Marks after values point to notes of the source that are not given here. One block for each molecule: values may come before it.
Assays:
ERH-2 [1] = type: binding, C. elegans
[2] = SEC-MALS, molecular mass and oligomeric state; type: physicochemical, C. elegans
[3] = system: Cy5-labeled 16-mer oligo(U) RNA; assay: Fluorescence anisotropy RNA binding, Cy5-U16; details: 100 nM Cy5-U16 RNA, pH 7.5, 15°C
TOFU-6^RRM = assay: SEC assay, TOFU-6^RRM with PID-3^RRM; type: binding, C. elegans; details: 1:1.5 molar ratio, Superdex 200 Increase 10/300
[4] = system: FITC-labeled 28-mer RNA based on the 21U-3372 precursor; assay: Fluorescence anisotropy RNA binding, FITC-28-mer pre-piRNA; design: species or system C. elegans; details: 100 nM FITC-28-mer RNA, pH 7.5, 15°C
PID-3/TOFU-6 interaction = type: binding, C. elegans
ERH-2 [5] = assay: Streptavidin pull-down, TOST-1/PID-1 mVenus-Strep bait with ERH-2; type: binding, C. elegans; details: TOST-1 or PID-1 mVenus-Strep bait 10-20 μM, prey 1.2-fold molar excess, 4°C
ERH-2/PID-3 = assay: SEC assay, ERH-2/TOST-1/PID-3 complex; type: binding, C. elegans; details: full-length ERH-2, TOST-1 and PID-3, 1:1 ratio
ERH-2 [6] = target: T1, ERH-2 (Caenorhabditis elegans, UniProt Q20057); assay: NMR-monitored titration of 15N-labeled ERH-2; type: binding, C. elegans; details: TOST-1^FL added to 15N-labeled ERH-2, 25°C
T1 sequence (Q20057 1-113): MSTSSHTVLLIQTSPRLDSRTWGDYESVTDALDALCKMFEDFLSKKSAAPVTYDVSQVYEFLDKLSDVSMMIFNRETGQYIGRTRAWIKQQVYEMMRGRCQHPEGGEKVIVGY

ERH-2 [7] = target: T1, ERH-2; assay: Isothermal titration calorimetry, binding to ERH-2; design: species or system C. elegans; details: ITC, 20 μM ERH-2 in cell, 431 μM TOST-1^FL in syringe; N fixed at 1, not fitted
ERH-2:PID-3^pep 1:2 = target: T2, ERH-2:PID-3^pep 1:2 (Caenorhabditis elegans, UniProt O76616+Q20057); assay: Isothermal titration calorimetry, binding to ERH-2:PID-3^pep 1:2; design: species or system C. elegans; details: ITC, 25°C, 50 mM Tris, 250 mM NaCl, 1 mM TCEP, pH 7.50; 20 μM ERH-2:40 μM PID-3^pep in cell, 431 μM TOST-1^FL in syringe; average and SD of two or three measurements
T2 sequence (Q20057 1-113): T1 sequence (Q20057 1-113)
T2 sequence (O76616 171-203 partner limits assumed): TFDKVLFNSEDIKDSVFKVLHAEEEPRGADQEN

[8] = system: ERH-2 alone, ERH-2/PID-3 subcomplex, full PETISCO; assay: Streptavidin pull-down, TOST-1-mVenus-Strep with ERH-2, ERH-2/PID-3 or PETISCO; type: binding, C. elegans; details: TOST-1-mVenus-Strep as bait
ERH-1 = target: T3, ERH-1 (Caenorhabditis elegans, UniProt Q22640); assay: Streptavidin pull-down, TOST-1/PID-1 mVenus-Strep bait with ERH-1; type: binding, C. elegans; details: TOST-1 or PID-1 mVenus-Strep bait 10-20 μM, prey 1.2-fold molar excess, 4°C
T3 sequence (Q22640 1-103): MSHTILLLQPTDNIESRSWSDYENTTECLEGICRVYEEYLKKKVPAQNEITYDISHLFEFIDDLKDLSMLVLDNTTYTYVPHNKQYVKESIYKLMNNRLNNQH

binding to ERH-2 in GST pull-down (ERH-2 [1]): failed to bind ERH-2 | relative RNA binding affinity [3]: lowest binding affinity | relative RNA binding affinity [4]: lowest binding affinity
B1: PID-3^RRM: PID-3 RRM domain, residues 196–274 (protein)
chain: PRGADQENMLKISGYPGMLNTFGIAQLLTPYRVNGITITGAQSAVVALENKFQVYQAVQDFNGKKLDRNHKLQVSSLVV
modifications: left off: His6, N-terminal, state not stated | GST, N-terminal, state not stated
oligomeric state [2]: homodimers | PID-3^RRM/TOFU-6^RRM interaction by SEC (TOFU-6^RRM): This is supported by SEC | PID-3/TOFU-6 interaction in pull-down (PID-3/TOFU-6 interaction): the RRM domains of PID-3 and TOFU-6 mediate the interaction between the two proteins

amide CSPs of full-length protein vs peptide (ERH-2 [6]): very similar amide CSPs | N (stoichiometry) (ERH-2 [7]): 1^c | Kd (ERH-2:PID-3^pep 1:2): 15 ± 2 µM
B2: TOST-1^FL: full-length TOST-1 (protein)
chain: MTTAIQYQVIPLADREHSNKVASILENKYKTATNKRITLNERFGVLEKGYTIQATEPETVKNDSDVFFVVHDRNLNSKKEFVENYLAKNPIVNSPEKVFEEEDKENAPTKKAVLKPSSTDEKKLTSSDIYIQEITRSILQSV
modifications: left off: His6, N-terminal, state not stated | Trx, N-terminal, state not stated
binding to ERH-2 in streptavidin pull-down (ERH-2 [5]): Both PID-1 and TOST-1 bound ERH-2; also recorded: more efficient bait than PID-1 | trimeric complex formation by SEC (ERH-2/PID-3): elutes at smaller elution volumes than the dimeric subcomplexes | pull-down of ERH-2 alone, with PID-3 or within PETISCO [8]: pulled down ERH-2 in all conditions; also recorded: more ERH-2 is pulled down when ERH-2 is in complex with PID-3 or as part of PETISCO | binding to ERH-1 in streptavidin pull-down (ERH-1): interacted with ERH-1; also recorded: more efficient bait than PID-1
